Test results published in patent US20140234331A1 (published 2014).

T1: Recombinant CTLA-4 fusion protein comprising the extracellular domain of human CTLA-4 (R&D Systems Cat. … (human, UniProt P16410 36-161))
T1 construct: extracellular domain; Bought protein; also called recombinant human CTLA-4 fusion protein; soluble CTLA-4; not shown: Factor Xa cleavage site and fusion partner (called Ig)
T1 sequence (looked up): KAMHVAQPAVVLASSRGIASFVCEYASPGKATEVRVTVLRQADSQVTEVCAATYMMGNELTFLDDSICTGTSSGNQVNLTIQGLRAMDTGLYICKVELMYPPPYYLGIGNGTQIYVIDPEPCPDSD


What was measured:
[1] = biological target: Macaque CTLA-4 expressed on transfected T-cells (macaque); experiment: flow cytometry (FACScan) on cell line expressing recombinant macaque CTLA-4
[2] = biological target: T1, Recombinant CTLA-4 fusion protein …; experiment: competitive ELISA with biotin labeled and unlabeled antibodies
Source text: Competitive ELISAs were done with biotin labeled and unlabeled antibodies to determine CTLA-4 epitope specificity. Four anti-CTLA-4 epitope binding groups were identified among the human antibodies, and an additional two epitopes were defined by the commercial murine monclonal antibodies BNI3 (Pharmingen, San Diego, Calif.), and 8H5 (Ancell Corp. Bayport, Minn.).

MFI [1] [MFI]	binding result [2]	Molecule
4		isotype control (Table 5) (antibody)
	binds	1E2 (human anti-CTLA-4 monoclonal antibody) (antibody, V domains shown) VH: QVQLVESGGGVVQPGRSLRLSCAASGFTFSSYGMHWVRQAPGKGLEWVAVIWYDGSNKYYADSVKGRFTISRDNSKNTLYLQMNSLRAEDTAVFYCARAPNYIGAFDVWGQGTMVTVSS VL: DIQMTQSPSSLSASVGDRVTITCRASQGISSWLAWYQQKPEKAPKSLIYAASSLQSGVPSRFSGSGSGTDFTLTISSLQPEDFATYYCQQYNSYPPTFGQGTKVEIK
